Literature values in patent US11474093B2, “Analysis method of protein-protein interaction and a screening method of protein-protein interaction inhibitors using a nanopore” (Korea Research Institute of Bioscience and Biotechnology, priority 2016, dated 2022).
Like-named read-outs stand apart in the source and are kept apart here.

Target: MDM2 (Homo sapiens, UniProt Q00987)
Sequence (Q00987 whole entry): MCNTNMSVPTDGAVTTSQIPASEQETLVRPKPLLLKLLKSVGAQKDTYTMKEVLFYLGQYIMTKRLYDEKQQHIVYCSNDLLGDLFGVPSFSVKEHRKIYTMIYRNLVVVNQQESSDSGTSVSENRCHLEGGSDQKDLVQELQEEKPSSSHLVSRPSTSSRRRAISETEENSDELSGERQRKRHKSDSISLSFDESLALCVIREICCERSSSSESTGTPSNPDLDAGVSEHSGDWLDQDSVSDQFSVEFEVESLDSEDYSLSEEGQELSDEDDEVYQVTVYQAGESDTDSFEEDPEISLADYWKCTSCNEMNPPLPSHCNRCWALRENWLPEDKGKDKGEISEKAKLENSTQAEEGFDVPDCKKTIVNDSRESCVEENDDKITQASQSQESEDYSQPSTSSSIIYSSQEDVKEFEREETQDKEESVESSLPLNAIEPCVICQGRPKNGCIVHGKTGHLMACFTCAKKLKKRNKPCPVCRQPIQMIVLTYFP

For “p53TAD: residues 1 to 73 of p53 transactivation domain (TAD)”, the Kd (read-out: Kd of the interaction between MDM2 and p53TAD) is given as 0.6 µM and the Kd (read-out: dissociation coefficient (Kd) with MDM2) is given as about 0.6 µM.
